Consider 5 substances from paper PMC7262448.

The target of test [1] is human SNAP-GLP-1R (human) (UniProt P43220).
A further test addresses mouse GLP-1R (mouse) (UniProt O35659).
Another test deals with rat GLP-1R (rat) (UniProt P32301).
Test [2] deals with human SNAP-GLP-1R (human) (UniProt P43220). As to the kind of experiment: FRET or BRET.
Another test deals with human plasma proteins. The test can be described thus: EScalate equilibrium shift assay; binding of peptide to the proteins of human or mouse plasma; percentage of peptide unbound, determined in duplicate.
The target in a further test is mouse plasma proteins. Described as above.

rat GLP-1R (rat), sequence (P32301 22-463): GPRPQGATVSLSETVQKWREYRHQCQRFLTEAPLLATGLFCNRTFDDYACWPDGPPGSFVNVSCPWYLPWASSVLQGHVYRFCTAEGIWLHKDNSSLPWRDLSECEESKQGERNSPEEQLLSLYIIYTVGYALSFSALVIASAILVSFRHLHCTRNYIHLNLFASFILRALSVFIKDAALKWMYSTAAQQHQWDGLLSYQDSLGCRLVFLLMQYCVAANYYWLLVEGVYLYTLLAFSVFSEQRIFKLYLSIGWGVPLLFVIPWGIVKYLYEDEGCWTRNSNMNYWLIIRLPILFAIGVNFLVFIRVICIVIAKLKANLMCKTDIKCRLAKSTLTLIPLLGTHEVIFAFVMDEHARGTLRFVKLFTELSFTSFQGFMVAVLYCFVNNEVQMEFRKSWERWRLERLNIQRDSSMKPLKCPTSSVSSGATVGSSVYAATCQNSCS
mouse GLP-1R (mouse), sequence (O35659 22-463): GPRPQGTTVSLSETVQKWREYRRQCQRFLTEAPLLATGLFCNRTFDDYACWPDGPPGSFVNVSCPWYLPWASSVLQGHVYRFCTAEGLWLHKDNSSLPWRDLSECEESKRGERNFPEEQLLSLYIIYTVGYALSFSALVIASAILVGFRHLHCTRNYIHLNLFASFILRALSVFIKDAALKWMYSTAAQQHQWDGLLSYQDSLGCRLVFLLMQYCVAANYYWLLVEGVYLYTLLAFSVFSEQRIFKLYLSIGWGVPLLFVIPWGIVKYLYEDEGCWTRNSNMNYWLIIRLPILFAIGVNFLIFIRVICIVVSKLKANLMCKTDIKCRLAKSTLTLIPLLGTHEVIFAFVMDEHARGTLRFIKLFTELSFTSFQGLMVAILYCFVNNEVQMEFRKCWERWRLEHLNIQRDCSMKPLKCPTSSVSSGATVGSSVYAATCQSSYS
human SNAP-GLP-1R (human), sequence (P43220 24-463): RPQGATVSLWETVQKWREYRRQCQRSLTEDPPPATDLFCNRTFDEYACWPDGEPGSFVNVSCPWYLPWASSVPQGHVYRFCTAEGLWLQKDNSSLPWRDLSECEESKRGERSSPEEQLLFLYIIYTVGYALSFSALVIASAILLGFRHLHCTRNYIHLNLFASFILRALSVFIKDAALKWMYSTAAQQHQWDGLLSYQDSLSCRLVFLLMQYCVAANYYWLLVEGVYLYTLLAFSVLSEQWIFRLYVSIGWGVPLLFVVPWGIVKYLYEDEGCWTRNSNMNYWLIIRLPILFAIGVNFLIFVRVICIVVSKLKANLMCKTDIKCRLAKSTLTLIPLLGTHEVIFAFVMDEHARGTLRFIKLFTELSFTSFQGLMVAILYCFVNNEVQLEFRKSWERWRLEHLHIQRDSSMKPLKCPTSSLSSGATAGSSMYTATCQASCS

With D^3-exendin-4 (peptide), in test [1], the cAMP (1% FBS), HEK293-SNAP-GLP-1R cells, Emax is 96 % max and the cAMP (1% FBS), HEK293-SNAP-GLP-1R cells, pEC50 is 10.6 pEC50 (M). In the test with mouse GLP-1R (mouse), the cAMP, MIN6B1 cells (with IBMX), Emax came to 101 % max and the cAMP, MIN6B1 cells (with IBMX), pEC50 is 11 pEC50 (M). In the test with rat GLP-1R (rat), the cAMP, INS-1 832/3 cells (with IBMX), Emax was 100 % max and the cAMP, INS-1 832/3 cells (with IBMX), pEC50 was 9 pEC50 (M). Further, in test [2], the pKd was 9.1 pKd (M).

As to F^1-exendin-4 (peptide), in test [1], the cAMP (1% FBS), HEK293-SNAP-GLP-1R cells, Emax is 83 % max and the cAMP (1% FBS), HEK293-SNAP-GLP-1R cells, pEC50 is 9 pEC50 (M). Further, in the test with mouse GLP-1R (mouse), the cAMP, MIN6B1 cells (with IBMX), Emax stood at 97 % max and the cAMP, MIN6B1 cells (with IBMX), pEC50 is 9.2 pEC50 (M). Besides, in the test with rat GLP-1R (rat), the cAMP, INS-1 832/3 cells (with IBMX), Emax was determined as 97 % max and the cAMP, INS-1 832/3 cells (with IBMX), pEC50 is 8.4 pEC50 (M). The pKd in test [2] was 7.8 pKd (M).

For the substance “[D^3,G^40,K^41.C16 diacid]exendin-4 (peptide)”, in test [1], the cAMP (1% FBS), HEK293-SNAP-GLP-1R cells, Emax stood at 97 % max and the cAMP (1% FBS), HEK293-SNAP-GLP-1R cells, pEC50 is 10.4 pEC50 (M). Further, in the test with mouse GLP-1R (mouse), the cAMP, MIN6B1 cells (with IBMX), Emax is 97 % max and the cAMP, MIN6B1 cells (with IBMX), pEC50 was 10.8 pEC50 (M). For the same substance, in the test with rat GLP-1R (rat), the cAMP, INS-1 832/3 cells (with IBMX), Emax amounted to 101 % max and the cAMP, INS-1 832/3 cells (with IBMX), pEC50 was 8.7 pEC50 (M). Moreover, the pKd in test [2] was 8.9 pKd (M). The unbound fraction (fu) with human plasma proteins was found to be 2.2%. Also, the unbound fraction (fu) in the test with mouse plasma proteins amounted to 2.1%.

Turning to “[F^1,G^40,K^41.C16 diacid]exendin-4 (peptide)”, in test [1], the cAMP (1% FBS), HEK293-SNAP-GLP-1R cells, Emax was 49 % max and the cAMP (1% FBS), HEK293-SNAP-GLP-1R cells, pEC50 is 8.2 pEC50 (M). Also, in the test with mouse GLP-1R (mouse), the cAMP, MIN6B1 cells (with IBMX), Emax came to 98 % max and the cAMP, MIN6B1 cells (with IBMX), pEC50 is 7.9 pEC50 (M). Besides, in the test with rat GLP-1R (rat), the cAMP, INS-1 832/3 cells (with IBMX), Emax came to 41 % max and the cAMP, INS-1 832/3 cells (with IBMX), pEC50 is 7.5 pEC50 (M). Besides, the pKd in test [2] is 8.3 pKd (M). Further, in the test with human plasma proteins, the unbound fraction (fu) is 2.1%. Further, in the test with mouse plasma proteins, the unbound fraction (fu) was found to be 2.4%.

Regarding “[G^40,K^41.C16 diacid]exendin-4 (from UniProt P26349 48-87) (peptide)”, the unbound fraction (fu) amounted to 2.3% in the test with human plasma proteins and 2.6% in the test with mouse plasma proteins.
